The test addresses EGFR-His (human ECD) (human). The test is described as follows: BLI.

As usually defined, the Kd is the concentration at which binding is half-saturated. Lower therefore signals a tighter complex.

In the case of Cetuximab Fab-His, the Kd amounted to 1.69 nM.

For the origin of these results see patent US20260297200.
